According to patent publication US20060270591A1 (published 2006):

Target: T1, VP16 fused near full-length AR (nAR, aa 36-918) (human, UniProt P10275 36-919)
T1 sequence: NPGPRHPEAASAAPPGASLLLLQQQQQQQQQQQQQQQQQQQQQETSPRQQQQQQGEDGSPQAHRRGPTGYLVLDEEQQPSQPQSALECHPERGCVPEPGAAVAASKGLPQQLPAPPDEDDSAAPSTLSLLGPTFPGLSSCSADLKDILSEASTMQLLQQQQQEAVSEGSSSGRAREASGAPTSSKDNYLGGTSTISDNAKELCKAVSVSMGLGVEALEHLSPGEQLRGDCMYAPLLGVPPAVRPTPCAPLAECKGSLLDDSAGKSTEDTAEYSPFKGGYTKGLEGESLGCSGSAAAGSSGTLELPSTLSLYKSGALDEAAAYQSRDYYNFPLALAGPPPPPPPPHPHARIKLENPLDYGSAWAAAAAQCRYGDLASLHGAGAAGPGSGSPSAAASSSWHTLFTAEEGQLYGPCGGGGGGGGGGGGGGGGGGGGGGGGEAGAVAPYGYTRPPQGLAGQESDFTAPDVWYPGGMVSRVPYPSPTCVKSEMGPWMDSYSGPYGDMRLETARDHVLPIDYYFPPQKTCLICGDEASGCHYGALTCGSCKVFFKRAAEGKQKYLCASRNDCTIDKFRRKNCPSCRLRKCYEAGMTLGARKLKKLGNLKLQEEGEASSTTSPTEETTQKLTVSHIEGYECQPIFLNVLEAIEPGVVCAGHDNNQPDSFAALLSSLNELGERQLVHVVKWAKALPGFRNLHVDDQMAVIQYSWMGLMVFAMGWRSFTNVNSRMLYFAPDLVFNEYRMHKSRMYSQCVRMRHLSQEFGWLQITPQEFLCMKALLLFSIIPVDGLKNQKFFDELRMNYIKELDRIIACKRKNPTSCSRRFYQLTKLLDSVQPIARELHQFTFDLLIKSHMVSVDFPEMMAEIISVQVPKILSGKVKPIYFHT
Assay: mammalian two-hybrid, DU145, CAT

B1: PR-LBD (mammalian two-hybrid construct) (receptor, UniProt P06401 679-933, looked up)
chain: QDIQLIPPLINLLMSIEPDVIYAGHDNTKPDTSSSLLTSLNQLGERQLLSVVKWSKSLPGFRNLHIDDQITLIQYSWMSLMVFGLGWRSYKHVSGQMLYFAPDLILNEQRMKESSFYSLCLTMWQIPQEFVKLQVSQEEFLCMKVLLLLNTIPLEGLRSQTQFEEMRSSYIRELIKAIGLRQKGVVSSSQRFYQLTKLLDNLHDLVKQLHLYCLNTFIQSRALSVEFPEMMSEVIAAQLPKILAGMVKPLLFHKK
notes: domain: LBD; Construct not described
  binding result: no binding
